Data on six molecules can be found in patent US20200399344A1 (SHATTUCK LABS, published 2020).

Sequences and labels used below:
T1: recombinant human 2B4 protein (rh2B4-His) (human, UniProt Q9BZW8-2 22-221, limits assumed)
T1 construct: also called recombinant 2B4-His protein; not shown: His tag
T1 sequence (looked up): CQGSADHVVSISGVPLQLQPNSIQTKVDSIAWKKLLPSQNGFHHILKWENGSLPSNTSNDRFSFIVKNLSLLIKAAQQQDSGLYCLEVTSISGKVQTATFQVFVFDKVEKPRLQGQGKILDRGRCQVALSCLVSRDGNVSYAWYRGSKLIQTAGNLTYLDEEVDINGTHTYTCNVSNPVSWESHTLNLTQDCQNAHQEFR

T2: hCD2 expressed on CHO-K1/hCD2 cells (human, UniProt P06729 25-351)
T2 construct: whole, on cells
T2 sequence (looked up): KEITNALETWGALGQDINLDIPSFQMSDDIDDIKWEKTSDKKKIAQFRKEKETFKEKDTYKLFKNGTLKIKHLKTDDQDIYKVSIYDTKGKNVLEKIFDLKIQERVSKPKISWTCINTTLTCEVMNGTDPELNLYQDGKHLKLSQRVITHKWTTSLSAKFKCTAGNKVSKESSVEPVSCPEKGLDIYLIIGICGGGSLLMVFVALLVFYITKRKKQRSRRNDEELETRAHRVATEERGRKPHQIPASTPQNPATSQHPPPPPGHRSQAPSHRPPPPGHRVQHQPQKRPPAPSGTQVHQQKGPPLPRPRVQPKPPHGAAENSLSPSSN

T3: recombinant human SLAMF6-Fc (rhSLAMF6-Fc) protein (human, UniProt Q96DU3 22-226)
T3 construct: not shown: Fc
T3 sequence (looked up): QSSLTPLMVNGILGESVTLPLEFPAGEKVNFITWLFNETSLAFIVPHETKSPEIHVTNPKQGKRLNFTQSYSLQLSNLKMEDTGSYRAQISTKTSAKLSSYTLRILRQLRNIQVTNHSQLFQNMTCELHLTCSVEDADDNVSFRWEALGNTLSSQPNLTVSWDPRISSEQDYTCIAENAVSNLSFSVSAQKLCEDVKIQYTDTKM

B1: recombinant human CD58-Fc fusion protein (rhCD58-Fc) (Fc fusion, UniProt P19256 29-215, looked up)
chain: FSQQIYGVVYGNVTFHVPSNVPLKEVLWKKQKDKVAELENSEFRAFSSFKNRVYLDTVSGSLTIYNLTSSDEDEYEMESPNITDTMKFFLYVLESLPSPTLTCALTNGSIEVQCMIPEHYNSHRGLIMYSWDCPMEQCKRNSTSIYFKMENDLPQKIQCTLSNPLFNTTSSIILTTCIPSSGHSRHR
notes: Positive control; also called recombinant hCD58-Fc protein; not shown: Fc
B2: recombinant human CD48-Fc (rhCD48-Fc) protein (Fc fusion, UniProt P09326 27-220, looked up)
chain: QGHLVHMTVVSGSNVTLNISESLPENYKQLTWFYTFDQKIVEWDSRKSKYFESKFKGRVRLDPQSGALYISKVQKEDNSTYIMRVLKKTGNEQEWKIKLQVLDPVPKPVIKIEKIEDMDDNCYLKLSCVIPGESVNYTWYGDKRPFPKELQNSVLETTLMPHNYSRCYTCQVSNSVSSKNGTVCLSPPCTLARS
notes: Comparator; not shown: Fc
B3: human CD58-Fc-NKG2A chimeric protein (Fc fusion)
chain: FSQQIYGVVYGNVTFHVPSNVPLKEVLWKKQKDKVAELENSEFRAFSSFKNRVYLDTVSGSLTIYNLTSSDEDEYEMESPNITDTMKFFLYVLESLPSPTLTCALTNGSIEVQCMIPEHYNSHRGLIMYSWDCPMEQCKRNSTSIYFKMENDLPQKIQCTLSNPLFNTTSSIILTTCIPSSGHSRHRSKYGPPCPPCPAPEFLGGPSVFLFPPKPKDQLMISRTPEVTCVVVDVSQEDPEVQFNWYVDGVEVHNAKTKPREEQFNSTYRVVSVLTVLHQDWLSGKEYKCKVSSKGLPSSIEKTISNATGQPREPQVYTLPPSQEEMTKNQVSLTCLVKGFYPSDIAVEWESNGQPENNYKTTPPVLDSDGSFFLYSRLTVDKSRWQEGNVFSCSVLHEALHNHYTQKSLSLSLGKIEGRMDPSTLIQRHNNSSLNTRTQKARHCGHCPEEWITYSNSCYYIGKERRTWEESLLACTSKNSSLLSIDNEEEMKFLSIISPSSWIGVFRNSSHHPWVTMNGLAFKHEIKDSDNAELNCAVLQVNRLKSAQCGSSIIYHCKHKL
notes: also called hCD58-Fc-NKG2A
B4: recombinant human CD2 protein (rhCD2-His) (receptor, UniProt P06729 25-209, looked up)
chain: KEITNALETWGALGQDINLDIPSFQMSDDIDDIKWEKTSDKKKIAQFRKEKETFKEKDTYKLFKNGTLKIKHLKTDDQDIYKVSIYDTKGKNVLEKIFDLKIQERVSKPKISWTCINTTLTCEVMNGTDPELNLYQDGKHLKLSQRVITHKWTTSLSAKFKCTAGNKVSKESSVEPVSCPEKGLD
notes: also called recombinant CD2 protein; not shown: His tag
B5: human TGFBR2-Fc-NKG2A chimeric protein (Fc fusion)
chain: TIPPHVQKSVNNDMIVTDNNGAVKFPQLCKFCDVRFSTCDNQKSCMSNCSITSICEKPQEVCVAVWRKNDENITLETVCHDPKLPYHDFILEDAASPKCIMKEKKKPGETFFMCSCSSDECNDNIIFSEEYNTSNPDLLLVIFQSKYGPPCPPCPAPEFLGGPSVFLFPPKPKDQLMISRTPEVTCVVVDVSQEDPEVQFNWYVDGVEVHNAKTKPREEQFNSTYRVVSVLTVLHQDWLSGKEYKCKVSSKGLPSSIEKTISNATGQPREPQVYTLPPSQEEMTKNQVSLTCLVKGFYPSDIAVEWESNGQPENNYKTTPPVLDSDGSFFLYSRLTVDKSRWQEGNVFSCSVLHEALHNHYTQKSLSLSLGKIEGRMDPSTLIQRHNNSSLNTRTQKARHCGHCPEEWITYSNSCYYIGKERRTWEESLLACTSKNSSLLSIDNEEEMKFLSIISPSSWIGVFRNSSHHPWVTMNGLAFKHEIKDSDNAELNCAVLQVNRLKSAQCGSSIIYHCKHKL
notes: also called hTGFBR2-Fc-NKG2A
B6: human SLAMF6-Fc-NKG2A chimeric protein (Fc fusion)
chain: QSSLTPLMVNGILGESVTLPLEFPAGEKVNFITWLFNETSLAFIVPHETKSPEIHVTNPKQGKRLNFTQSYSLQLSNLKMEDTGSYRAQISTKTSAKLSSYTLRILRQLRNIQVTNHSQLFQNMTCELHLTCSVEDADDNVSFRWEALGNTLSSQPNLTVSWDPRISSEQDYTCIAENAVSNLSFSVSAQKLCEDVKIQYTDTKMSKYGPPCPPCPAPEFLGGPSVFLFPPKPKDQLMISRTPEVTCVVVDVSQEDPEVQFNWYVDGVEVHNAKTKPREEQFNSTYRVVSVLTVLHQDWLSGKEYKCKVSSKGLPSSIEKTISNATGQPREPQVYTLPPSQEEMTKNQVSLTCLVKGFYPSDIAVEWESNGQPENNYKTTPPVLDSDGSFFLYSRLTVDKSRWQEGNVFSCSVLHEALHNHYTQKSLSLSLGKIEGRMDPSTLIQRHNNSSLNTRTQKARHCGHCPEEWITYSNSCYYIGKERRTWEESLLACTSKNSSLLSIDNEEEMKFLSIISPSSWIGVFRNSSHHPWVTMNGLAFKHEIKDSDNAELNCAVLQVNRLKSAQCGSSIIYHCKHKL
notes: also called hSLAMF6-Fc-NKG2A

Assay [1] deals with B4. The assay can be described thus: ELISA: coat rhCD2-His (Acro CD2-H5226), detection Anti-hFc-HRP. As for the experimental part: (§1) Recombinant human CD2 (rhCD2) protein was coated on plates. Increasing amounts of the indicated chimeric proteins or Recombinant human CD58-Fc fusion protein (rhCD58-Fc) were added and detected using an anti-mFc-HRP (for mCD80-Fc-NKG2A) or anti-hFc-HRP (for rest of the proteins).
(§2) CD2 is a transmembrane protein in T cells that binds to its ligand CD58 on APC in humans and on CD48 in rodents. To understand whether the CD48 and CD58 parts of the hCD48-Fc-NKG2A, and hCD58-Fc-NKG2A chimeric protein can bind CD2, ELISA-based assays were performed. Briefly, recombinant human CD2 protein (rhCD2-His) was coated on plates and increasing amounts of the hCD48-Fc-NKG2A, hCD58-Fc-NKG2A, and mCD80-Fc-NKG2A chimeric proteins and recombinant hCD58-Fc protein was added to the plates for capture by the plate-bound recombinant CD2 protein. The […] chimeric protein served as a negative control and recombinant hCD58-Fc protein served as a positive control. The hCD48-Fc-NKG2A and hCD58-Fc-NKG2A, chimeric proteins and recombinant hCD58-Fc protein bound to the recombinant CD2 protein was detected using an anti-human Fc HRP. The mCD80-Fc-NKG2A chimeric protein bound to the recombinant CD2 protein was detected using an anti-mouse Fc HRP.
(ELISA stands for enzyme-linked immunosorbent assay.)

The target of assay [2] is T1, recombinant human 2B4 protein …. The assay can be described thus: ELISA: coat rh2B4-His (Sino 10042-H08H), detection Anti-hFc-HRP. As for the experimental part: Increasing amounts of the indicated chimeric proteins or rhCD48-Fc were added and detected using an anti-mFc-HRP (for mCD80-Fc-NKG2A) or anti-hFc-HRP (for rest of the proteins).
CD48 is the ligand for 2B4. To understand whether the CD48 parts of the hCD48-Fc-NKG2A chimeric protein can bind 2B4, ELISA-based assays were performed. Briefly, recombinant human 2B4 protein (rh2B4-His) was coated on plates and increasing amounts of the hCD48-Fc-NKG2A and mCD80-Fc-NKG2A chimeric proteins and recombinant human CD48-Fc (rhCD48-Fc) protein was added to the plates for capture by the plate-bound recombinant 2B4 protein. The hCD48-Fc-NKG2A chimeric protein and recombinant human CD48-Fc (rhCD48-Fc) protein bound to the recombinant 2B4 protein was detected using an anti-human Fc HRP. The mCD80-Fc-NKG2A chimeric protein, which was used as a negative control, bound to the recombinant 2B4 protein was detected using an anti-mouse Fc HRP.

The target of assay [3] is T2, hCD2 expressed on CHO-K1/hCD2 cells. The assay can be described thus: flow cytometry cell binding assay, CHOk1 cells, axis label GEO Mean - PE MFI. (In flow cytometry, cells or beads pass a laser one at a time.)
Assay [4] has as its target T4, recombinant HLA-E-His protein (human, UniProt P13747 22-305, limits assumed).
T4 construct: also called recombinant HLA-E (HLA-E-His); not shown: His tag
The assay can be described thus: ELISA: the chimeric protein is the titrated coat (1:3), detection HLA-E-His (Novus NBP2-47435PEP), HRP Anti-6x-His-HRP. As for the experimental part:
In a complementary experiment, increasing amounts of the hCD48-Fc-NKG2A, hCD58-Fc-NKG2A, and hCD80-Fc-NKG2A chimeric proteins or a negative control protein was coated on plates. Recombinant HLA-E-His protein was added to the plates for capture by the plate-bound chimeric proteins or the negative control protein. The captured HLA-E-His protein was detected using an anti-6×-His-HRP antibody.

Assay [5] addresses B1. The assay can be described thus: ELISA: coat rhCD2-His (Acro CD2-H5226), detection Anti-hFc-HRP. The procedure:
as §1, §2

Assay [6] deals with T5, anti-human IgG antibody (plate-bound).
T5 construct: also called anti-human Fc antibody
The assay can be described thus: ELISA (single sided Fc): coat Anti-Human IgG (H+L) Jax# 109-005-088, detection HRP Goat anti-human FCgamma. As for the experimental part: Anti-human IgG was coated on plates and increasing amounts of the indicated chimeric proteins were added to the plates. hIgG was used as a positive control, and mCD80-Fc-NKG2A was used as a negative control. The binding was detected using an anti-human Fcgamma HRP.
To understand whether the Fc linkers from the native chimeric proteins can be accessed by anti-human antibodies, ELISA-based assays were performed. For these assays, an anti-human IgG antibody was coated on plates and increasing amounts of the hCD86-Fc-NKG2A and hTGFBR2-Fc-NKG2A, mCD80-Fc-NKG2a chimeric proteins, and a human IgG antibody were added to the plates for capture by the plate-bound anti-human antibody. The human IgG antibody was used as a positive control and to generate a standard curve. The mCD80-Fc-NKG2a chimeric protein was included as a negative control as containing a non-human Fc domain. The protein bound to the anti-human IgG antibody was detected using an anti-human Fcgamma HRP.

Assay [7] has as its target T4, recombinant HLA-E-His protein. The assay can be described thus: ELISA: the chimeric protein is the titrated coat (1:3), detection HLA-E-His (Novus NBP2-47435PEP), HRP Anti-6x-His-HRP. As for the experimental part: Similarly, increasing amounts of the hTGFBR2-Fc-NKG2A and hSLAMF6-Fc-NKG2A chimeric proteins chimeric proteins or a negative control protein was coated on plates. Recombinant HLA-E-His protein was added to the plates for capture by the plate-bound chimeric proteins or the negative control protein. The captured HLA-E-His protein was detected using an anti-6×-His-HRP antibody.
This is another data set of the same source.

Assay [8] addresses T3, recombinant human SLAMF6-Fc …. The assay can be described thus: dual ELISA; coat rhSLAMF6-Fc, hSLAMF6-Fc-NKG2a titrated, detection HLA-E-His, Anti-His-6x-HRP; the signal needs both bindings. As for the experimental part: Increasing amounts of the hSLAMF6-Fc-NKG2A chimeric protein was added and detected using HLA-E-His. A chimeric protein comprising ECD of a type II transmembrane protein other than NKG2A was used as a negative control.
To understand whether the hSLAMF6-Fc-NKG2A chimeric protein can binds simultaneously to both hSLAMF6 and HLA-E, the following ELISA experiment was carried out. Briefly, and recombinant hSLAMF6 (rhSLAMF6-Fc) protein was coated on plates. Increasing amounts of the hSLAMF6-Fc-NKG2A chimeric protein was added to the plates for capture by the recombinant human SLAMF6-Fc (rhSLAMF6-Fc) protein. Further, recombinant HLA-E (HLA-E-His) protein was added to the plate for capture by hSLAMF6-Fc-NKG2A chimeric protein. The binding of the HLA-E-His protein was detected using an anti-His 6× HRP antibody.

Like-named read-outs stand apart in the source and are kept apart here.

T4 sequence (P13747 22-305 limits assumed): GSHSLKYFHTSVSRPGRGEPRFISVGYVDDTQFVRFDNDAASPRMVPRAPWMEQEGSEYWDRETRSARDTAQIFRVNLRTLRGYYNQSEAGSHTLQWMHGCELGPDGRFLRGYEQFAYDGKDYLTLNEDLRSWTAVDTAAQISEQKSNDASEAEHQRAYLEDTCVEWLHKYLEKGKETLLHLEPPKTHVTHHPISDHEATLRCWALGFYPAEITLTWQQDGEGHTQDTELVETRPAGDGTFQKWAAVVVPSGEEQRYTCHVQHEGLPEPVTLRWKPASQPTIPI

What is called EC50 (read off the curve) is the concentration that produces a half-maximal response. On to B1, for which, in assay [1], the “EC50 (read off the curve)” value was approximately 1 µg/mL.
As for B2, in assay [2], the binding result was “binds”.
Take B3: the “EC50 (read off the curve)” value is approximately 1 µg/mL in assay [3] and approximately 0.7 µg/mL in assay [4].
As for B4, in assay [5], the binding result was “binds”.
Consider B5, for which the “EC50 (read off the curve)” value in assay [6] was approximately 10 µg/mL; in assay [7], approximately 5 µg/mL.
On to B6, for which the “EC50 (read off the curve)” value was approximately 6 µg/mL in assay [7] and approximately 30 µg/mL in assay [8].
